T1: recombinant hCD127 (Sino Biologicals, reference 10975-H08H) (human, UniProt P16871 21-239)
T1 construct: also called rCD127; CD127 protein
T1 chain: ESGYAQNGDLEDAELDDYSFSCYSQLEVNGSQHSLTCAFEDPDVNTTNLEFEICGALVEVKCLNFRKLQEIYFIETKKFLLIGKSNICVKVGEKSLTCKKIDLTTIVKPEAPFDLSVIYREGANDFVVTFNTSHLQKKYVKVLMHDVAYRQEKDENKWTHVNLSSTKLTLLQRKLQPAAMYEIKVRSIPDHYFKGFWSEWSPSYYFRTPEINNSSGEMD


Key:
[1] = target: T1, recombinant hCD127 (Sino Biologicals, …); experiment: ELISA, recombinant hCD127 immobilised at 1 µg/ml, purified antibody
Description: The binding activity of the anti hCD127 antibody was assessed by ELISA (Enzyme-linked immunosorbent assay). For the ELISA assay, recombinant hCD127 (Sino Biologicals, Beijing, China; reference 10975-H08H) was immobilized on plastic at 1μg/ml and purified antibody were added to measure binding.

[2] = target: T1, recombinant hCD127 (Sino Biologicals, …); experiment: ELISA on immobilised recombinant hCD127 (1 µg/ml) after storage under different conditions
Description: Humanized Effi3 antibody (clone VH3VL4) was incubated at 4° C., 37° C., at −80° C. or at room Temperature for 28 days. The binding activity was tested by ELISA assay, recombinant hCD127 (Sino Biologicals, Beijing, China; reference 10975-H08H) was immobilized on plastic at 1 μg/ml and dilutions of supernatant were added to measure binding. […] Increase doses of Mabs were added to measure binding.

EC50 [1] [ng/mL]	EC50 (read off the curve) [2] [ng/mL]	Binder
4	~6	Effi3-VH3VL4 (antibody, human IgG1, kappa, V domains shown, Humanized from rat MD707-3; also called Effi3 H3L4; VHvar3+VLvar4) VH: AVQLVESGGGLVQPGGSLKITCAASGFTFTNAAMYWVRQAPGKGLEWVARIRTKANNYATYYADSVKGRFTISRDDSKSTVYLQMDSVKTEDTATYYCIVVVLTTTRDYFDYWGQGVLVTVSS VL: DIVLTQSPSSLPVTPGEPASISCRSSQDLLTVKGITSLYWFLQKPGQSPKLLIYRMSNRDSGVPDRFSGSGSGTDFTLKISRVEAEDVGTYYCAQFLEYPHTFGAGTKLELKR
4	–	Effi3-VH3VL3 (antibody, human IgG1, kappa, V domains shown, Humanized from rat MD707-3; They are built here from the variable and constant entries so that the signal peptide is left out; also called Effi3 H3L3; VHvar3+VLvar3) VH: AVQLVESGGGLVQPGGSLKITCAASGFTFTNAAMYWVRQAPGKGLEWVARIRTKANNYATYYADSVKGRFTISRDDSKSTVYLQMDSVKTEDTATYYCIVVVLTTTRDYFDYWGQGVLVTVSS VL: DIVLTQSPSSLPVTPGEPASISCRSSQSLLTVKGITSLYWFLQKPGQSPKLLIYRMSNRDSGVPDRFSGSGSETDFTLKISRVEAEDVGTYYCAQFLEYPHTFGAGTKLELKR
3.4	–	MD707-3 (antibody, V domains shown, Rat anti-human CD127 antibody; also called MD707-3 chimeric antibody; MD707-3 mAb) VH: AVHLVESGGGLVQPKESLKISCAASGFTFSNAAMYWVRQAPGKGLEWVARIRTKANNYATYYAESVKGRFTISRDDSKSMVYLQMDNVKTDDTAMYYCIVVVLTTTRDYFDYWGQGVMVTVSS VL: DIVLTQAPLSVSVTPGESASISCRSSQSLLTVKGITSLYWFLQKPGKSPQLLIYRMSNLASGVPDRFRGSGSETDFTLKISKVETEDVGVYYCAQFLEYPHTFGAGTKLELKR
